Laboratory results taken from IntAct's records for PubMed 25416956.

Experiments:
tm239_human TMEM239 [1] = target: tm239_human TMEM239 (UniProt Q8WW34)
praf1_human RABAC1 [2] = target: praf1_human RABAC1 (UniProt Q9UI14)
ldaf1_human LDAF1 [3] = target: ldaf1_human LDAF1 (UniProt Q96B96)
tfp11_human TFIP11 [4] = target: tfp11_human TFIP11 (UniProt Q9UBB9)
reep6_human REEP6 [5] = target: reep6_human REEP6 (UniProt Q96HR9)
praf1_human RABAC1 [6] = target: praf1_human RABAC1 (UniProt Q9UI14); remark: listed apart in the source
reep6_human REEP6 [7] = target: reep6_human REEP6 (UniProt Q96HR9); remark: listed apart in the source
ldaf1_human LDAF1 [8] = target: ldaf1_human LDAF1 (UniProt Q96B96); remark: listed apart in the source
tfp11_human TFIP11 [9] = target: tfp11_human TFIP11 (UniProt Q9UBB9); remark: listed apart in the source
tm239_human TMEM239 [10] = target: tm239_human TMEM239 (UniProt Q8WW34); remark: listed apart in the source
ldaf1_human LDAF1 [11] = target: ldaf1_human LDAF1 (UniProt Q96B96); remark: listed apart in the source
atrap_human AGTRAP = atrap_human AGTRAP (UniProt Q6RW13)
praf1_human RABAC1 [12] = target: praf1_human RABAC1 (UniProt Q9UI14); remark: listed apart in the source
tfp11_human TFIP11 [13] = target: tfp11_human TFIP11 (UniProt Q9UBB9); remark: listed apart in the source
tm239_human TMEM239 [14] = target: tm239_human TMEM239 (UniProt Q8WW34); remark: listed apart in the source
reep6_human REEP6 [15] = target: reep6_human REEP6 (UniProt Q96HR9); remark: listed apart in the source

Measured: effect of a mutation on the interaction

Sequence of ldaf1_human LDAF1 (Q96B96 whole entry): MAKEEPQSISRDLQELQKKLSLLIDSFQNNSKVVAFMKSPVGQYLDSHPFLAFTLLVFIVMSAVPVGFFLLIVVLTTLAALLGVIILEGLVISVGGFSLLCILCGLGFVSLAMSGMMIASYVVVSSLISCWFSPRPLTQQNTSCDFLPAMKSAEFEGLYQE
Sequence of tfp11_human TFIP11 (Q9UBB9 whole entry): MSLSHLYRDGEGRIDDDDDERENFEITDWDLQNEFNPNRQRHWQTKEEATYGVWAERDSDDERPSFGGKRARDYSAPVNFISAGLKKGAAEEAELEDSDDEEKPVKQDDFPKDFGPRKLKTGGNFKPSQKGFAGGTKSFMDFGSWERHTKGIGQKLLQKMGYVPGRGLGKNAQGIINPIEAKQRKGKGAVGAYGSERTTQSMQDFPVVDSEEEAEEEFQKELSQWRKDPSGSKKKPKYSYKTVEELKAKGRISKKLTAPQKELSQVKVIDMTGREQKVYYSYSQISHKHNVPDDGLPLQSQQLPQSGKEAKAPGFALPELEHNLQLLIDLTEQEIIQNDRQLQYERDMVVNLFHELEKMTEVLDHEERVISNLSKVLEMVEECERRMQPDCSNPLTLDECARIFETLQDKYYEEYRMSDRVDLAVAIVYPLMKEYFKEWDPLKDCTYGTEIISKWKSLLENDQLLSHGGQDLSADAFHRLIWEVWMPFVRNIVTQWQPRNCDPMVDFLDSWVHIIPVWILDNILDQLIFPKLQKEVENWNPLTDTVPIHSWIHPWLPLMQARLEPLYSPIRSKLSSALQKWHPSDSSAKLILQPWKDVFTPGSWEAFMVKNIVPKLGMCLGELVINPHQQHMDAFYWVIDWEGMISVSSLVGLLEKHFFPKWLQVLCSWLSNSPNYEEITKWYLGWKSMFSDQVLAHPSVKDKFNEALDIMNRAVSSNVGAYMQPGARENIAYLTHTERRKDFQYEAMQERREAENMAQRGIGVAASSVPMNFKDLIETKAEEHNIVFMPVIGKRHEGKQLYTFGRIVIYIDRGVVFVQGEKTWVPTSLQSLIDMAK
Sequence of tm239_human TMEM239 (Q8WW34 whole entry): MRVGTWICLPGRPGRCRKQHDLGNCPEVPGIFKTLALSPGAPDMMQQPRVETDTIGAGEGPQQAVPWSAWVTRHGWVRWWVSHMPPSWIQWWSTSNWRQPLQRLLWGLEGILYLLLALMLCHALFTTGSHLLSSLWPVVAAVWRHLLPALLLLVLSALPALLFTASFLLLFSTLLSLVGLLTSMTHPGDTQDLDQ
Sequence of reep6_human REEP6 (Q96HR9 whole entry): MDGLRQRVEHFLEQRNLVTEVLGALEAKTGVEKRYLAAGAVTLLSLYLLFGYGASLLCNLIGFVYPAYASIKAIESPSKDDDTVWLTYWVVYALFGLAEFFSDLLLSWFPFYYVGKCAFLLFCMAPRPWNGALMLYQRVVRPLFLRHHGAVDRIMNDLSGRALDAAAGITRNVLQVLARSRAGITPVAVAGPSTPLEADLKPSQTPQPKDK
Sequence of praf1_human RABAC1 (Q9UI14 whole entry): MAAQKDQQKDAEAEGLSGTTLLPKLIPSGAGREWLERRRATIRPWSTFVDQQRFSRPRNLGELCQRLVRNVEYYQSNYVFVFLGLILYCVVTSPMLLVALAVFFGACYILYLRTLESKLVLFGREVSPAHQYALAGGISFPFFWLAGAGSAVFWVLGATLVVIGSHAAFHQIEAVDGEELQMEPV
Sequence of atrap_human AGTRAP (Q6RW13 whole entry): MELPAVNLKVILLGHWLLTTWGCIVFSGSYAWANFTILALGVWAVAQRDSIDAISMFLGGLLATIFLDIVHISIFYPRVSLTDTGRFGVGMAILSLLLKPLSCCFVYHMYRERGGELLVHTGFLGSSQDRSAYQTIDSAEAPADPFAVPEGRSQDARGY

Atypical kinase COQ8A, mitochondrial (Homo sapiens), Q8NI60 E551K
disrupting interaction: tm239_human TMEM239 [1] | praf1_human RABAC1 [2] | ldaf1_human LDAF1 [3] | tfp11_human TFIP11 [4] | reep6_human REEP6 [5]

Atypical kinase COQ8A, mitochondrial (Homo sapiens), Q8NI60 G272V
disrupting interaction: praf1_human RABAC1 [6] | reep6_human REEP6 [7] | ldaf1_human LDAF1 [8] | tfp11_human TFIP11 [9] | tm239_human TMEM239 [10]

Atypical kinase COQ8A, mitochondrial (Homo sapiens), Q8NI60 R213W
disrupting interaction: ldaf1_human LDAF1 [11] | atrap_human AGTRAP | praf1_human RABAC1 [12] | tfp11_human TFIP11 [13] | tm239_human TMEM239 [14] | reep6_human REEP6 [15]
